Data as given in patent publication US20170327594A1 (UNIVERSIT T STUTTGART, published 2017).

How the values were obtained:
[1] = target: T1, TNFR2-Fc fusion protein (Enbrel) (UniProt P20333 23-257); assay: ELISA on coated TNFR2-Fc (Enbrel)
T1 construct: Commercial product Enbrel, coated at 1 ug/ml; not shown: Fc part of Enbrel
T1 sequence (looked up): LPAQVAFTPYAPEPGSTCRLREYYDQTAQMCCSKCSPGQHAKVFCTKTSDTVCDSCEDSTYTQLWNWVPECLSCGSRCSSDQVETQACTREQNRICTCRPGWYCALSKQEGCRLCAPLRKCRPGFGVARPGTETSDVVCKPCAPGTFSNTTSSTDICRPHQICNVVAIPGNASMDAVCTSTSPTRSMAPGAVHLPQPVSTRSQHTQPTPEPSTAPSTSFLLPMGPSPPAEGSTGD
Description: FIG. 36: a-c) Purified TNF variants (a: MHD2-scTNFR2, b: EHD2-scTNFR2 with a 16 aa linker between EHD2 and scTNFR2 as well as c: EHD2-scTNFR2 with a 28 aa linker between EHD2 and scTNFR2) were analyzed by 8% SDS-PAGE under reducing (+2-ME) or non-reducing (−2-ME) conditions and stained with Coomassie. d) Binding studies with TNFR2-Fc fusion protein. Plates were coated with 1 μg/ml TNFR2-Fc fusion protein (Enbrel). TNF fusion proteins were incubated for 1 h at RT and bound TNF fusion proteins were detected using HRP-conjugated anti-TNF antibodies and TMB substrate (n=2).

CEA = target: T2, CEA (UniProt P06731 35-685, limits assumed); assay: ELISA on immobilized CEA
T2 construct: also called immobilized CEA; carcinoembryonic antigen
T2 sequence (looked up): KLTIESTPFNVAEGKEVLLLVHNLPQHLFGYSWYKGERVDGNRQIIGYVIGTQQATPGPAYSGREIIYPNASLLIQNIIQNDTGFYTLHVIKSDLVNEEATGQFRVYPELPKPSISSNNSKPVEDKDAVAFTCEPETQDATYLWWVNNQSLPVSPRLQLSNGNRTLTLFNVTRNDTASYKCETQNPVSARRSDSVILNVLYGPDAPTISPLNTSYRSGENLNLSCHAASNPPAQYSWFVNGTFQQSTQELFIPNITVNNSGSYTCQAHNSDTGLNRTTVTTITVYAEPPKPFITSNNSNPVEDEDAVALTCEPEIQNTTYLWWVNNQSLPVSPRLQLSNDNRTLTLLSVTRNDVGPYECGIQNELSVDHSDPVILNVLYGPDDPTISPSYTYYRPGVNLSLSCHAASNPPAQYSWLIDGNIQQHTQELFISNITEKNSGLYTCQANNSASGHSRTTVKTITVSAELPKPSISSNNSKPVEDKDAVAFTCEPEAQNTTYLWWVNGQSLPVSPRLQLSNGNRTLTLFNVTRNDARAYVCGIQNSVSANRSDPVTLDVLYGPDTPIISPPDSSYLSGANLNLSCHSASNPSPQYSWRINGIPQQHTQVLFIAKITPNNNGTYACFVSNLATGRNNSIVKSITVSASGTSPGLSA
Text: Bound antibodies were detected with an HRP-conjugated anti-His-tag antibody.
A bispecific single-chain diabody (scDb)-EHD2 fusion protein was generated by fusing a scDb directed against CEA and human CD3 to the N-terminus of the EHD2 (FIG. 27a, b). The construct was cloned into mammalian expression vector pSecTagA and produced in stably transfected HEK293 cells. Protein was purified from the cell culture supernatant by immobilized metal affinity chromatography.

HER2-Fc fusion protein = target: T3, HER2-Fc fusion protein (UniProt P04626 23-652, limits assumed); assay: ELISA on immobilized HER2-Fc
T3 construct: extracellular domain; also called Fc fusion protein of the extracellular region of HER2; not shown: Fc part

EGFR-Fc fusion protein = target: T4, EGFR-Fc fusion protein (UniProt P00533 25-645, limits assumed); assay: ELISA on immobilized EGFR-Fc
T4 construct: extracellular domain; also called Fc fusion protein of the extracellular region of EGFR; immobilized EGFR; not shown: Fc part

[2] = target: T5, recombinant TRAIL-R1 (receptor-Fc fusion protein) (UniProt O00220 24-239, limits assumed); assay: ELISA on recombinant receptor-Fc
T5 construct: also called TRAIL receptor 1; not shown: Fc part

B1: EHD2-scTNFR2-L16aa (ligand)
chain: DAAQPAGGGAAAHHHHHHGGTGGGGSGGKLGGSGGDFTPPTVKILQSSCDGGGHFPPTIQLLCLVSGYTPGTINITWLEDGQVMDVDLSTASTTQEGELASTQSELTLSQKHWLSDRTYTCQVTYQGHTFEDSTKKCADSNGGGSGGGTGSEFLASSRTPSDKPVAHVVANPQAEGQLQWLNRRANALLANGVELRDNQLVVPSEGLYLIYSQVLFKGQGCPSTHVLLTHTISRIAVSYQTKVNLLSAIKSPCQRETPEGAEAKPWYEPIYLGGVFQLEKGDRLSAEINRPDYLNFRESGQVYFGIIALGGGGSSSRTPSDKPVAHVVANPQAEGQLQWLNRRANALLANGVELRDNQLVVPSEGLYLIYSQVLFKGQGCPSTHVLLTHTISRIAVSYQTKVNLLSAIKSPCQRETPEGAEAKPWYEPIYLGGVFQLEKGDRLSAEINRPDYLNFRESGQVYFGIIALGGGGSSSRTPSDKPVAHVVANPQAEGQLQWLNRRANALLANGVELRDNQLVVPSEGLYLIYSQVLFKGQGCPSTHVLLTHTISRIAVSYQTKVNLLSAIKSPCQRETPEGAEAKPWYEPIYLGGVFQLEKGDRLSAEINRPDYLNFRESGQVYFGIIAL
notes: Dimer of the TNFR2-selective single-chain TNF mutant (D143N/A145R) fused to EHD2, 16 aa linker; also called EHD2-scTNFR2 with a 16 aa linker between EHD2 and scTNFR2
[1]
  binding result: binds

B2: EHD2-scTNFR2-L28aa (ligand)
chain: DAAQPAGGGAAAHHHHHHGGTGGGGSGGKLGGSGGDFTPPTVKILQSSCDGGGHFPPTIQLLCLVSGYTPGTINITWLEDGQVMDVDLSTASTTQEGELASTQSELTLSQKHWLSDRTYTCQVTYQGHTFEDSTKKCADSNGGGSGGGSGGGSGGGSGGGSGGSEFLASSRTPSDKPVAHVVANPQAEGQLQWLNRRANALLANGVELRDNQLVVPSEGLYLIYSQVLFKGQGCPSTHVLLTHTISRIAVSYQTKVNLLSAIKSPCQRETPEGAEAKPWYEPIYLGGVFQLEKGDRLSAEINRPDYLNFRESGQVYFGIIALGGGGSSSRTPSDKPVAHVVANPQAEGQLQWLNRRANALLANGVELRDNQLVVPSEGLYLIYSQVLFKGQGCPSTHVLLTHTISRIAVSYQTKVNLLSAIKSPCQRETPEGAEAKPWYEPIYLGGVFQLEKGDRLSAEINRPDYLNFRESGQVYFGIIALGGGGSSSRTPSDKPVAHVVANPQAEGQLQWLNRRANALLANGVELRDNQLVVPSEGLYLIYSQVLFKGQGCPSTHVLLTHTISRIAVSYQTKVNLLSAIKSPCQRETPEGAEAKPWYEPIYLGGVFQLEKGDRLSAEINRPDYLNFRESGQVYFGIIAL
notes: Dimer of the TNFR2-selective single-chain TNF mutant (D143N/A145R) fused to EHD2, 28 aa linker; also called EHD2-scTNFR2 with a 28 aa linker between EHD2 and scTNFR2
[1]
  binding result: binds

B3: Anti-CEAxCD3 scDb-EHD2 (bispecific antibody)
chain: DAAQPAMAQVKLQQSGAELVRSGTSVKLSCTASGFNIKDSYMHWLRQGPEQGLEWIGWIDPENGDTEYAPKFQGKATFTTDTSSNTAYLQLSSLTSEDTAVYYCNEGTPTGPYYFDYWGQGTTVTVSSGGGGSDIQMTQSPSSLSASVGDRVTITCRASQDIRNYLNWYQQKPGKAPKLLIYYTSRLESGVPSRFSGSGSGTDYTLTISSLQPEDFATYYCQQGNTLPWTFGQGTKVEIKRGGGGSGGRASGGGGSEVQLVESGGGLVQPGGSLRLSCAASGYSFTGYTMNWVRQAPGKGLEWVALINPYKGVSTYNQKFKDRFTISVDKSKNTAYLQMNSLRAEDTAVYYCARSGYYGDSDWYFDVWGQGTLVTVSSGGGGSDIELTQSPAIMSASPGEKVTITCSASSSVSYMHWFQQKPGTSPKLWIYSTSNLASGVPARFSGSGSGTSYSLTISRMEAEDAATYYCQQRSSYPLTFGAGTKLELKRGSLGGSGGDFTPPTVKILQSSCDGGGHFPPTIQLLCLVSGYTPGTINITWLEDGQVMDVDLSTASTTQEGELASTQSELTLSQKHWLSDRTYTCQVTYQGHTFEDSTKKCADSNGGGSGGGTGSEFAAAHHHHHH
notes: Homodimer: scDb against CEA and human CD3 at the N-terminus of EHD2, His6; also called bispecific single-chain diabody (scDb)-EHD2 fusion protein
CEA
  binding result: binds

B4: MHD2-scTNFR2 (ligand)
chain: DAAQPAGGGAAAHHHHHHGGTGGGGSGGKLGGSGGAELPPKVSVFVPPRDGFFGNPRKSKLICQATGFSPRQIQVSWLREGKQVGSGVTTDQVQAEAKESGPTTYKVTSTLTIKESDWLGQSMFTCRVDHRGLTFQQNASSMCVPDGGGSGGGTGSEFLASSRTPSDKPVAHVVANPQAEGQLQWLNRRANALLANGVELRDNQLVVPSEGLYLIYSQVLFKGQGCPSTHVLLTHTISRIAVSYQTKVNLLSAIKSPCQRETPEGAEAKPWYEPIYLGGVFQLEKGDRLSAEINRPDYLNFRESGQVYFGIIALGGGGSSSRTPSDKPVAHVVANPQAEGQLQWLNRRANALLANGVELRDNQLVVPSEGLYLIYSQVLFKGQGCPSTHVLLTHTISRIAVSYQTKVNLLSAIKSPCQRETPEGAEAKPWYEPIYLGGVFQLEKGDRLSAEINRPDYLNFRESGQVYFGIIALGGGGSSSRTPSDKPVAHVVANPQAEGQLQWLNRRANALLANGVELRDNQLVVPSEGLYLIYSQVLFKGQGCPSTHVLLTHTISRIAVSYQTKVNLLSAIKSPCQRETPEGAEAKPWYEPIYLGGVFQLEKGDRLSAEINRPDYLNFRESGQVYFGIIAL
[1]
  binding result: binds

B5: Anti-CEA scFv-EHD2 (scFv)
chain: DAAQPAMAQVKLQQSGAELVRSGTSVKLSCTASGFNIKDSYMHWLRQGPEQGLEWIGWIDPENGDTEYAPKFQGKATFTTDTSSNTAYLQLSSLTSEDTAVYYCNEGTPTGPYYFDYWGQGTTVTVSSGGGGSGGGGSGGGGSDIELTQSPAIMSASPGEKVTITCSASSSVSYMHWFQQKPGTSPKLWIYSTSNLASGVPARFSGSGSGTSYSLTISRMEAEDAATYYCQQRSSYPLTFGAGTKLELKRGSLGGSGGDFTPPTVKILQSSCDGGGHFPPTIQLLCLVSGYTPGTINITWLEDGQVMDVDLSTASTTQEGELASTQSELTLSQKHWLSDRTYTCQVTYQGHTFEDSTKKCADSNGGGSGGGTGSEFAAAHHHHHH
notes: Bivalent homodimer, His6; also called scFv-EHD2 fusion protein directed against CEA
CEA
  binding result: binds

B6: EHD2-scTRAIL (ligand)
chain: DYKDDDDKGGGGSAAQPADFTPPTVKILQSSCDGGGHFPPTIQLLCLVSGYTPGTINITWLEDGQVMDVDLSTASTTQEGELASTQSELTLSQKHWLSDRTYTCQVTYQGHTFEDSTKKCADSNGGSGGEFTRGTSEETISTVQEKQQNISPLVRERGPQRVAAHITGTRGRSNTLSSPNSKNEKALGRKINSWESSRSGHSFLSNLHLRNGELVIHEKGFYYIYSQTYFRFQEEIKENTKNDKQMVQYIYKYTSYPDPILLMKSARNSCWSKDAEYGLYSIYQGGIFELKENDRIFVSVTNEHLIDMDHEASFFGAFLVGGGGSGGGSTSEETISTVQEKQQNISPLVRERGPQRVAAHITGTRGRSNTLSSPNSKNEKALGRKINSWESSRSGHSFLSNLHLRNGELVIHEKGFYYIYSQTYFRFQEEIKENTKNDKQMVQYIYKYTSYPDPILLMKSARNSCWSKDAEYGLYSIYQGGIFELKENDRIFVSVTNEHLIDMDHEASFFGAFLVGGGGSGGGSTSEETISTVQEKQQNISPLVRERGPQRVAAHITGTRGRSNTLSSPNSKNEKALGRKINSWESSRSGHSFLSNLHLRNGELVIHEKGFYYIYSQTYFRFQEEIKENTKNDKQMVQYIYKYTSYPDPILLMKSARNSCWSKDAEYGLYSIYQGGIFELKENDRIFVSVTNEHLIDMDHEASFFGAFLVG
notes: Bivalent homodimer of single-chain TRAIL at the C-terminus of EHD2, FLAG-tagged
HER2-Fc fusion protein
  binding result: no binding
EGFR-Fc fusion protein
  binding result: no binding
[2]
  binding result: binds
